Substitutions are numbered along the chain they refer to.
T1: human αvβ6 on 293F:huβ6 cells (human, UniProt P06756 31-1048; P18564 22-788)
T1 chain 1: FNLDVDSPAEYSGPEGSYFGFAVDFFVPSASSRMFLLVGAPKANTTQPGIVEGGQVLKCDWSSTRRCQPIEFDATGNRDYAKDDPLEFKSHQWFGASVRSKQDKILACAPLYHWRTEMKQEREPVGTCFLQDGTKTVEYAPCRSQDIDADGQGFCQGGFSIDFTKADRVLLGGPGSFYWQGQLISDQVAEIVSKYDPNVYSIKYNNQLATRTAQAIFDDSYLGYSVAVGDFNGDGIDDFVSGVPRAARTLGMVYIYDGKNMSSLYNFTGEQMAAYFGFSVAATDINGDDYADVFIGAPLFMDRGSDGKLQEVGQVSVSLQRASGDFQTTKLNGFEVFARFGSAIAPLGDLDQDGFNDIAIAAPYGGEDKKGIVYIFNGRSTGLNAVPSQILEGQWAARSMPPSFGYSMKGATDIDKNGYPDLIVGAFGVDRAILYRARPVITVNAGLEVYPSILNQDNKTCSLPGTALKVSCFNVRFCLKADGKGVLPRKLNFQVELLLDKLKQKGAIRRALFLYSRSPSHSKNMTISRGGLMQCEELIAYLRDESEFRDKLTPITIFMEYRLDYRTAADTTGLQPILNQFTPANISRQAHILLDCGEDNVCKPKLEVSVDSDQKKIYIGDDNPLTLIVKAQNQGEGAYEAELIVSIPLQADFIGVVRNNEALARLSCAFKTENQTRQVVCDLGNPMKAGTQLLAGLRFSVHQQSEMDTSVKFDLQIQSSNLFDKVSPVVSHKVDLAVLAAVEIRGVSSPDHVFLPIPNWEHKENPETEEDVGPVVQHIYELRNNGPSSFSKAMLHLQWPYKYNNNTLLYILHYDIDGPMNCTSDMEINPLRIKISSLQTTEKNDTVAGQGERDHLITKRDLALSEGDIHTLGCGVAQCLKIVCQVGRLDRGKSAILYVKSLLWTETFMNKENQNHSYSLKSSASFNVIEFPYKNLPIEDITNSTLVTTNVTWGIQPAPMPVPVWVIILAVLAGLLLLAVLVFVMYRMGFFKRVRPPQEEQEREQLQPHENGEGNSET
T1 chain 2: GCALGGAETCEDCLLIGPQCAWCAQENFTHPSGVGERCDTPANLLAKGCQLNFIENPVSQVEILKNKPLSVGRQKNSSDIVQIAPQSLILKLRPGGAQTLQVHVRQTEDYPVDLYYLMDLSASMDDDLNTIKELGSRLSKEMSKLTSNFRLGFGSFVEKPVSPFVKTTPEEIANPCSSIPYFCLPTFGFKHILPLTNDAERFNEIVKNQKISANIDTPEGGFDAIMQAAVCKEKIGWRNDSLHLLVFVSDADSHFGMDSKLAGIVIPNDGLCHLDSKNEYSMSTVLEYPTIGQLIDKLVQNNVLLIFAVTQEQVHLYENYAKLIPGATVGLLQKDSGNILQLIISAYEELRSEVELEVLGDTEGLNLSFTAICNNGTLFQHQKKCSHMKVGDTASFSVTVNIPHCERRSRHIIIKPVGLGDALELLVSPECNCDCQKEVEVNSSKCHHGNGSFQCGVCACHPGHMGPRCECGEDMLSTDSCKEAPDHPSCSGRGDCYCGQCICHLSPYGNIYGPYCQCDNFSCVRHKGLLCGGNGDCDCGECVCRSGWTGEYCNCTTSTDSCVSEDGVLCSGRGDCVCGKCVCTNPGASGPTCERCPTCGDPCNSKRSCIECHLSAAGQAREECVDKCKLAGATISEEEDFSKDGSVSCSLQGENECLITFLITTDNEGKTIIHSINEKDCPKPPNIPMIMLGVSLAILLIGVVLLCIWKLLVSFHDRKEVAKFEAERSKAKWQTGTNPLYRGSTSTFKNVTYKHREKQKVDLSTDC

T2: cyno αvβ6 on 293F:cynoβ6 cells (human;Macaca fascicularis, UniProt P06756 31-1048; A0A2K5TZ36 22-787)
T2 chain 1: T1 chain 1
T2 chain 2: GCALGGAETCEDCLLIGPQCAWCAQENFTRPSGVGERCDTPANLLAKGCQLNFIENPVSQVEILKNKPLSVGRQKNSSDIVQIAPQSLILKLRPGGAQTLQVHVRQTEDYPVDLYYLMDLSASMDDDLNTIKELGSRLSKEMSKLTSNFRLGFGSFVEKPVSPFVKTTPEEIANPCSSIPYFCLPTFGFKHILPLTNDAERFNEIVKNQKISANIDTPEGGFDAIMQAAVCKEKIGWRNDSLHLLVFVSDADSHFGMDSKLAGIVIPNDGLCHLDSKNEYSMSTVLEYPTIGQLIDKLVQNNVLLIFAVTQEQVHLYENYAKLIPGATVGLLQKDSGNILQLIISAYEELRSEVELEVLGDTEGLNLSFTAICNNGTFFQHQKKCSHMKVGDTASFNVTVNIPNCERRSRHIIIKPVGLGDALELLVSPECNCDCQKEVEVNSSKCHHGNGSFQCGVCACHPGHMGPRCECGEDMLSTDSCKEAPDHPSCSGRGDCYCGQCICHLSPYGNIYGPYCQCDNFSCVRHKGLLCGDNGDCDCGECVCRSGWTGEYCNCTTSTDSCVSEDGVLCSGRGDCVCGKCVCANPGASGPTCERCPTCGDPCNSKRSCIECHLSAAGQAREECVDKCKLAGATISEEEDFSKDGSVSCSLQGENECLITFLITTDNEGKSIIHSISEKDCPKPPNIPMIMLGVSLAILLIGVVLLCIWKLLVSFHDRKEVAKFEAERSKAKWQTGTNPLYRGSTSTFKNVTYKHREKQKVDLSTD

B1: h2A2 HCLH (antibody, V domains shown)
VH: QFQLVQSGAEVKKPGASVKVSCKASGYSFTDYNVNWVRQAPGQGLEWIGVINPKYGTTRYNQKFKGRATLTVDKSTSTAYMELSSLRSEDTAVYYCTRGLNAWDYWGQGTLVTVSS
VL: DIQMTQSPSSLSASVGDRVTITCGASENIYGALNWYQQKPGKAPKLLIYGATNLADGVPSRFSGSGSGRDFTFTISSLQPEDIATYYCQNVLTTPYTFGQGTKLEIKR
B2: h2A2-Mdpr-PEG(12)-gluc-MMAE(8) (antibody, human IgG1, kappa, V domains shown)
VH: B1 VH
VL: B1 VL with A55E, F71Y
modifications: SGD-5088 drug-linker (Mdpr-PEG(12)-gluc-MMAE) on cysteines of the reduced interchain disulfides, eight copies of drug-linker per antibody
notes: also called ADC prepared with h2A2 HCLG and the SGD-5088 drug-linker; HCLG ADC
B3: h2A2 HALG (antibody, V domains shown)
VH: B1 VH with I48M, A68V, L70M, V72R, K74T, A79V
VL: B1 VL with A55E, F71Y
B4: h2A2 HCLE (antibody, V domains shown)
VH: B1 VH
VL: B1 VL with G24Q, F71Y
B5: h2A2 HALB (antibody, V domains shown)
VH: B1 VH with I48M, A68V, L70M, V72R, K74T, A79V
VL: B1 VL with F71Y
B6: murine monoclonal antibody 2A2 (antibody, V domains shown)
VH: EFQLQQSGPELVKPGASVKISCKASGYSFTDYNVNWVKQSNGKSLEWIGVINPKYGTTRYNQKFKGKATLTVDKPSSTAYMQLNSLTSEDSAVYYCTRGLNAWDYWGQGASVTVSS
VL: DIQMTQSPASLSASVGETVTITCGASENIYGALNWYQRKQGKSPQLLIYGATNLADGMSSRFSGSGSGRQYSFKISSLHPDDVATYYCQNVLTTPYTFGGGTKLEIK
notes: Mouse hybridoma IgG; also called m2A2; mouse 2A2

Tests used:
[1] = target: T1, human αvβ6 on 293F:huβ6 cells; experiment: competition binding on 293F cells; 2nM m2A2-AF647 competitor
[2] = target: T1, human αvβ6 on 293F:huβ6 cells; experiment: as above
[3] = target: T3, human αvβ6 on 293F:huβ6 cells (human, UniProt P06756 31-1048; P18564 22-788); experiment: competition binding by flow cytometry on 293F:huβ6 cells
T3 construct: whole, on cells; also called HEK293F:huβ6
Protocol: 0.1×10⁶ antigen expressing cells were aliquoted in each well of a 96-well v-bottom plate on ice. The cells were incubated for 1 hour with 2 nM AlexaFluor-647 labeled humanized 2A2 HCLG and increasing concentrations (from 4 pM-1 uM) of unlabeled humanized 2A2 HCLG antibody and h2A2-Mdpr-PEG(12)-gluc-MMAE(8) in buffer (Tris-buffered saline, 2% fetal bovine serum, 0.5 mM MnCl₂, 0.02% NaN₃). Cells were pelleted and washed 3 times with TBS/FBS. The cells were pelleted and resuspended in 125 uL of TBS/FBS. Fluorescent signal of binding was detected using a Becton Dickinson Biosciences LSR II (San Jose, CA). Percent of saturated fluorescent signal was used to determine percent labeled humanized 2A2 antibody bound to cells and to subsequently extrapolate the EC50 by fitting the data to a sigmoidal dose-response curve with variable slope using GraphPad Software (LaJolla, CA).

[4] = target: T1, human αvβ6 on 293F:huβ6 cells; experiment: competition binding on 293F cells
[5] = target: T2, cyno αvβ6 on 293F:cynoβ6 cells; experiment: competition binding on 293F cells
[6] = target: T1, human αvβ6 on 293F:huβ6 cells; experiment: competition binding on 293F cells; 2nM m2A2-AF647 competitor
[7] = target: T4, αvβ5 on the αvβ5-positive parental line (293F:vector) (human, UniProt P06756 31-1048; P18084 24-799); experiment: FMAT and flow cytometry binding studies on cells
T4 construct: whole, on cells; HEK293F cells transfected with the empty vector, used as negative control; also called HEK293F:vector

[8] = target: T3, human αvβ6 on 293F:huβ6 cells; experiment: FMAT and flow cytometry binding studies on cells
[9] = target: T1, human αvβ6 on 293F:huβ6 cells; experiment: saturation binding on 293F cells; AF647-labeled
[10] = target: T2, cyno αvβ6 on 293F:cynoβ6 cells; experiment: saturation binding on 293F cells; AF647-labeled
[11] = target: T1, human αvβ6 on 293F:huβ6 cells; experiment: saturation binding on 293F cells; AF647-labeled
[12] = target: T2, cyno αvβ6 on 293F:cynoβ6 cells; experiment: saturation binding on 293F cells; AF647-labeled

T4 sequence (P18084 24-799, one chain of several): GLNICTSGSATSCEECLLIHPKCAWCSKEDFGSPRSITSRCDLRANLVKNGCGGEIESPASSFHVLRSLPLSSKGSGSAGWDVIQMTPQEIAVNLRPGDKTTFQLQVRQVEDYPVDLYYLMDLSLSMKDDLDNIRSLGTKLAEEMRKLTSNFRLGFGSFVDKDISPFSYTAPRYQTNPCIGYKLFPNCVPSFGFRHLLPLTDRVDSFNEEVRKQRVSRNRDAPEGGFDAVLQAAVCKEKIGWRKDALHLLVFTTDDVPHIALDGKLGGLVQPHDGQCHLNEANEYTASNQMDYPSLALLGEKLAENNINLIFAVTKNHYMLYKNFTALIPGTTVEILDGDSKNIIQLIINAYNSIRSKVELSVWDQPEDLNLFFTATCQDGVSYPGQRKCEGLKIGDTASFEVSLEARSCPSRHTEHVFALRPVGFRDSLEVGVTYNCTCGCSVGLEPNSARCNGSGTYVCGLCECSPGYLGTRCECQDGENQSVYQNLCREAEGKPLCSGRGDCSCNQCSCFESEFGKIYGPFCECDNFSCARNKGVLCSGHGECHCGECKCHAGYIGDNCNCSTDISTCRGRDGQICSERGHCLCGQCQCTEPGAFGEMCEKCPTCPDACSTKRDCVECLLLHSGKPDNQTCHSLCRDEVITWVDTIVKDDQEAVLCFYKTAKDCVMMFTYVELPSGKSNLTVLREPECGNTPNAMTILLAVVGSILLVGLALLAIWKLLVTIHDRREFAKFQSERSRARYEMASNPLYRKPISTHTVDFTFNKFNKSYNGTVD

Binder | EC50 [1] | EC50 [2] | EC50 [6] | also measured
B1 | 30 nM | 46 nM | – | –
B2 | – | – | – | binding result [3]: binds; EC50 [4]: 4 nM; EC50 [5]: 4 nM
B3 | 1 nM | 1 nM | – | –
B4 | 3 nM | 2 nM | – | –
B5 | 8 nM | – | 5 nM | –
B6 | 2 nM | 3 nM | 3 nM | binding result [7]: no binding; binding result [8]: binds; EC50 [9]: 0.5 nM; EC50 [10]: 0.4 nM; EC50 [11]: 0.5 nM; EC50 [12]: 0.4 nM
